The target of assay [1] is cIAP2 BIR1 (Homo sapiens) (UniProt Q13489). Conditions: cited from earlier work.
Assay [2] addresses T1, TRAF2 segment (recombinant, ITC) (human, UniProt Q12933 1-501).
T1 construct: human TRAF2 segment; it compares with Zheng et al. (2010); source: E. coli BL21 (DE3), purified (Ni-Sepharose, HiTrap Q, Superdex 200); not shown: His-SUMO, N-terminal, cleaved
T1 sequence (looked up): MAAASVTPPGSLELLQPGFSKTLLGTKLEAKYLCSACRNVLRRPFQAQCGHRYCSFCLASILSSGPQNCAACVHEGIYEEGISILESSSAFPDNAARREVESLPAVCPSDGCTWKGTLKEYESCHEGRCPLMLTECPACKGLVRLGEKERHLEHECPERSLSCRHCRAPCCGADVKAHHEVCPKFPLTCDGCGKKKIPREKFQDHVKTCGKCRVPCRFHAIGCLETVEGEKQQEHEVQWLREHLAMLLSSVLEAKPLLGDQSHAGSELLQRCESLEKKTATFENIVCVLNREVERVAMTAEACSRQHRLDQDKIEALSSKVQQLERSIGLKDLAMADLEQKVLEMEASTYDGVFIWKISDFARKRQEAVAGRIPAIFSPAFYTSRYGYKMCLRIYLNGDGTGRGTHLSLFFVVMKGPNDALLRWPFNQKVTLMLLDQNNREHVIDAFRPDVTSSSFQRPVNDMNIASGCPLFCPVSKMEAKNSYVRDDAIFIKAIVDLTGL
In words: ITC; cIAP2 protein (2-4 mM) injected into 0.20 mM TRAF2; 16°C; 25 mM Tris-HCl pH 8.0, 150 mM NaCl; MicroCal ITC200.

What is called Kd is the constant that tells how readily two partners part at equilibrium.

Like-named read-outs stand apart in the source and are kept apart here.

Turning to TRAF2 (from UniProt Q12933), in assay [1], the Kd was 1700 nM.
On to “UBA domain of cIAP2 (from UniProt Q13489 372-425) (domain or fragment)”, for which the Kd in assay [2] was found to be 480000 nM.

B1: cIAP2 segment with the BIR1 in conjunction with the UBA domain (domain or fragment)
chain: LSCELYRMSTYSTFPAGVPVSERSLARAGFYYTGVNDKVKCFCCGLMLDNWKRGDSPTEKHKKLYPSCRFVQSLNSVNNLEATSQPTFPSSVTNSTHSLLPGTENSGYFRGSYSNSPSNPVNSRANQDFSALMRSSYHCAMNNENARLLTFQTWPLTFLSPTDLAKAGFYYIGPGDRVACFACGGKLSNWEPKDNAMSEHLRHFPKCPFIENQLQDTSRYTVSNLSMQTHAARFKTFFNWPSSVLVNPEQLASAGFYYVGNSDDVKCFCCDGGLRCWESGDDPWVQHAKWFPRCEYLIRIKGQEFIRQVQASYPHLLEQLLSTSDSPGDENAESSIIHFEPGEDHSEDAIMMNTPVINAAVEMGFSRSLVKQTVQRKILATGENYRLVNDLVLDLLNAEDEIREEERERAT
modifications: Zn2+ bound by the BIR domains
B1: the Kd in assay [2] (both partners purified) was determined as 430 nM.

The values above are taken from publication PMC5823975, “Ubiquitin-Mediated Regulation of RIPK1 Kinase Activity Independent of IKK and MK2” (Molecular Cell, 2018).
